Measurements published in patent US6949357.

Target: rabbit polyclonal antiserum against the BL172 synthetic peptide of SEQ ID NO: 20
Test: competition Western blot; antiserum pre-incubated overnight at 4 C with varying concentrations of peptide immunogen

concentration of peptide at which antibody binding to the band was inhibited: 2.9 µM
Binder: TQTCGNCTFRVCFEQCCPWTFMVKLINQNCD [BL172 synthetic peptide of SEQ ID NO: 20]
